According to patent US20080008712:

Key:
CDC25B5 = molecular target: T1, CDC25B5
T1 chain: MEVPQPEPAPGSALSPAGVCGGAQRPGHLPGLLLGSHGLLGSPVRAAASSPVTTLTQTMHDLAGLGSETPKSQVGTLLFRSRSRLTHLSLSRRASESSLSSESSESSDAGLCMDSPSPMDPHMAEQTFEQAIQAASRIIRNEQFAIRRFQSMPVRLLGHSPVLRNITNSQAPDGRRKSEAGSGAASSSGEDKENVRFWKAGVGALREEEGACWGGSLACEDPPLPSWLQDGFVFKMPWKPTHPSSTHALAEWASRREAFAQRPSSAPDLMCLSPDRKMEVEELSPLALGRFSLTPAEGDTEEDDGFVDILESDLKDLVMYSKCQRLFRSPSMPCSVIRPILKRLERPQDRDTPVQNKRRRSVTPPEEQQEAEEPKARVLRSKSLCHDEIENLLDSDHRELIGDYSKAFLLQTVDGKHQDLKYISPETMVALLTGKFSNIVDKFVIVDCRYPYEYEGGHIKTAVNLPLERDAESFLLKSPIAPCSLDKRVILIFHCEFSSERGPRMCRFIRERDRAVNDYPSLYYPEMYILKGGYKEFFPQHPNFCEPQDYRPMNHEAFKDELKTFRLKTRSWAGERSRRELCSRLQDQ

CDC25B2 = molecular target: T2, CDC25B2
T2 chain: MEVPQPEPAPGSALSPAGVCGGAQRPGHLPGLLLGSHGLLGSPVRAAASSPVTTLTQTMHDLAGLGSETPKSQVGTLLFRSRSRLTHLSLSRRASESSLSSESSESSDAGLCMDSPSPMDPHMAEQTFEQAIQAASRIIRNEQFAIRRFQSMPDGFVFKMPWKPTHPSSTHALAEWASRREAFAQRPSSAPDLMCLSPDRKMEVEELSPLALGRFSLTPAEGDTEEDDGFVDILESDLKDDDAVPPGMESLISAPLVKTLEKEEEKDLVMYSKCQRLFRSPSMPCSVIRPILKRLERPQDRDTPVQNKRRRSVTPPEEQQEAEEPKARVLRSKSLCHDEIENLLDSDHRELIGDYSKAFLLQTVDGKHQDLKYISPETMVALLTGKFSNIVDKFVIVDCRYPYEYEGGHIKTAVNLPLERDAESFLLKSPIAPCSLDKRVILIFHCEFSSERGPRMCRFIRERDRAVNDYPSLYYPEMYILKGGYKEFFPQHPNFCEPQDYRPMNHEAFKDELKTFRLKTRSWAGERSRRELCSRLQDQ

[1] = molecular target: T3, CDC25B3 recombinant protein
T3 chain: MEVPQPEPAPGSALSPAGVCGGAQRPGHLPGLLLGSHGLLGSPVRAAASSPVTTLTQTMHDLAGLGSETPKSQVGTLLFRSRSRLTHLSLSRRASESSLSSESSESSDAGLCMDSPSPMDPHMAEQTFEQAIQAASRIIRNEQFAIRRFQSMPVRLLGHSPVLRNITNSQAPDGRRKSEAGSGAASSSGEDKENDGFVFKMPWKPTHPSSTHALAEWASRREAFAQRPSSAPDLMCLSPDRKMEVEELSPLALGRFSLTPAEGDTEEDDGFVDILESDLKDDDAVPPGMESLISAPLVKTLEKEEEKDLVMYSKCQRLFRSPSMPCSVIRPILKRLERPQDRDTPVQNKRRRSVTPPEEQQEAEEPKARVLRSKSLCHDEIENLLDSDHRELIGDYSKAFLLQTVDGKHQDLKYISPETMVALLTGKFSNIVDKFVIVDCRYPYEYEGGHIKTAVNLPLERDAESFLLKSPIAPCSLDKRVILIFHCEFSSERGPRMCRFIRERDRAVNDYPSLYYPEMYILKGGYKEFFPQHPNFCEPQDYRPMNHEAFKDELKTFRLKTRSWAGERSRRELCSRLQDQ

CDC25B1 = molecular target: T4, CDC25B1
T4 chain: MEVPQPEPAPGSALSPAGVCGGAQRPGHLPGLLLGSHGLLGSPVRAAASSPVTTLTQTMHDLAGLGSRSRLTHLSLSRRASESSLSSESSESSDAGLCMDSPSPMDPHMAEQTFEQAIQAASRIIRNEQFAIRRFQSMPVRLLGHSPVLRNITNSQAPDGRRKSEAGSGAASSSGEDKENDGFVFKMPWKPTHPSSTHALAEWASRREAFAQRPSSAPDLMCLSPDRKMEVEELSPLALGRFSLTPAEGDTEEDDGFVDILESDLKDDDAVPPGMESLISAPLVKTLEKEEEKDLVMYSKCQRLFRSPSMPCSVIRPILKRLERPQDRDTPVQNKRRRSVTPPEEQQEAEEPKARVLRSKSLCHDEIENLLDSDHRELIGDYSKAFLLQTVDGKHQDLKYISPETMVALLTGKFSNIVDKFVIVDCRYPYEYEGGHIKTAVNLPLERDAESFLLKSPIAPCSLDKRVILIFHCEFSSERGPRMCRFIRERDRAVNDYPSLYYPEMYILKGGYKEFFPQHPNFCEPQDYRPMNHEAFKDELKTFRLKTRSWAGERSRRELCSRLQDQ

CDC25B4 = molecular target: T5, CDC25B4
T5 chain: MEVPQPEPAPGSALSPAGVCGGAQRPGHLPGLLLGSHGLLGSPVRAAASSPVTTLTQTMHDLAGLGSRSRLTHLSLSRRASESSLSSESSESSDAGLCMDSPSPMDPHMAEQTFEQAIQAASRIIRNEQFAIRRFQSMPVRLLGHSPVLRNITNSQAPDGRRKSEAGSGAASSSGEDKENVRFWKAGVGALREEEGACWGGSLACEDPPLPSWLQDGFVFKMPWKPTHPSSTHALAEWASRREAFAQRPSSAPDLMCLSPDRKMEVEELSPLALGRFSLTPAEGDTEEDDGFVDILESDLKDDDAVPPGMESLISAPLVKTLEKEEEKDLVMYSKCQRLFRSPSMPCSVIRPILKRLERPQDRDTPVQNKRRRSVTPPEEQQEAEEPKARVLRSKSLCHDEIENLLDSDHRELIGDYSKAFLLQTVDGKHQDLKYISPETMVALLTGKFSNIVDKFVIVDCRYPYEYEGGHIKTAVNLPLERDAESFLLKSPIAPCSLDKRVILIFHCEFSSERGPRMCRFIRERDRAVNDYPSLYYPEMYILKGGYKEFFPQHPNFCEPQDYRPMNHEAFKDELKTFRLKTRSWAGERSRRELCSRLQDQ

B1: recombinant Aurora A kinase (protein)
chain: MDRSKENCISGPVKATAPVGGPKRVLVTQQFPCQNPLPVNSGQAQRVLCPSNSSQRIPLQAQKLVSSHKPVQNQKQKQLQATSVPHPVSRPLNNTQKSKQPLPSAPENNPEEELASKQKNEESKKRQWALEDFEIGRPLGKGKFGNVYLAREKQSKFILALKVLFKAQLEKAGVEHQLRREVEIQSHLRHPNILRLYGYFHDATRVYLILEYAPLGTVYRELQKLSKFDEQRTATYITELANALSYCHSKRVIHRDIKPENLLLGSAGELKIADFGWSVHAPSSRRTTLCGTLDYLPPEMIEGRMHDEKVDLWSLGVLCYEFLVGKPPFEANTYQETYKRISRVEFTFPDFVTEGARDLISRLLKHNPSQRPMLREVLEHPWITANSSKPSNCQNKESASKQS
B1 was tested, and the in vitro phosphorylation (CDC25B5) was “CDC25B5 on the serine 361”, the in vitro phosphorylation (CDC25B2) was “CDC25B2 on the serine 312” and the “in vitro phosphorylation, MS/MS of the tryptic peptide 353-SVTPPEEQQEAEEPK-367” value [1] was “it is the serine 353 which is phosphorylated by the kinase”. The in vitro phosphorylation (CDC25B1) was “the recombinant Aurora A kinase phosphorylates CDC25B1 on the serine 339” and the in vitro phosphorylation (CDC25B4) was “CDC25B4 on the serine 374”.
